Ends that are not written are not given here.
Biological target: MDM2 NTD polypeptide (residues 10–139) (UniProt Q00987 10-139)
Experiment: fluorescence polarisation

Row | Binder | binding result
1 | fluorescein-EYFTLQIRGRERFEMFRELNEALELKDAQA [wild-type p53 OD peptide (residues 326–355)] | binds
2 | fluorescein-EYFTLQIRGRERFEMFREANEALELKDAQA (also: dimeric) [dimeric mutant p53 OD peptide (L344A, residues 326–355)] | binds
